In patent US20090004190A1, “Rage Fusion Proteins And Methods Of Use” (priority 2006, published 2009):

Assays:
[1] = tested on: transgenic mice expressing human Swedish mutant APP; experiment: Mouse model of AD (APP transgenic mice): amyloid deposition and Morris water maze; format: in vivo
Protocol: Experiments were performed to evaluate whether TTP-4000 could affect amyloid formation and cognitive dysfunction in a mouse model of AD. The experiments utilized transgenic mice expressing the human Swedish mutant amyloid precursor protein (APP) under the control of the PDGF-B chain promoter. Over time, these mice generate high levels of the RAGE ligand, amyloid beta (Aβ).
The APP mice (male) used in this experiment were designed by microinjection of the human APP gene (with the Swedish and London mutations) into mouse eggs under the control of the platelet-derived growth factor B (PDGF-B) chain gene promoter. The mice were generated on a C57BL/6 background and were developed by Molecular Therapeutics Inc. Animals were fed ad libitum and maintained by brother sister mating. The mice generated from this construct develop amyloid deposits starting at 6 months of age. Animals were aged for 6 months and then maintained for 90 days and sacrificed for amyloid quantification.
APP transgenic mice were administered vehicle or TTP4000 every other day [qod (i.p.)] for 90 days starting at 6 months of age. At the end of the experiment, animals were sacrificed and examined for Aβ plaque burden in the brain (i.e., plaque number). A 6-month control APP group was used to determine the baseline of amyloid deposits. In addition, at the end of the study, the animals were subjected to behavioral (Morris water maze) analysis. The investigators were blinded to the study compounds. Samples were given to the mice at 0.25 ml/mouse/every other day.
For histological examination, the animals were anesthetized with an intraperitoneal injection (IP) of sodium pentobarbital (50 mg/kg). The animals were transcardially perfused with 4° C., phosphate-buffered saline (PBS) followed by 4% paraformaldehyde. The brains were removed and placed in 4% paraformaldehyde over night. The brains were processed to paraffin and embedded. Ten serial 30-μm thick sections through the brain were obtained. Sections were subjected to primary antibody overnight at 4° C. (Aβ peptide antibody) in order to detect the amyloid deposits in the brain of the transgenic animals (Guo et al., J. Neurosci., 22:5900-5909 (2002)). Sections were washed in Tris-buffered saline (TBS) and secondary antibody was added and incubated for 1 hour at room temperature. After washing, the sections were incubated as instructed in the Vector ABC Elite kit (Vector Laboratories) and stained with […] (DAB). The reactions were stopped in water and cover-slipped after treatment with xylene. The amyloid area in each section was determined with a computer-assisted image analysis system, consisting of a Power Macintosh computer equipped with a Quick Capture frame grabber card, Hitachi CCD camera mounted on an Olympus microscope and camera stand. NIH Image Analysis Software, v. 1.55 was used. The images were captured and the total area of amyloid was determined over the ten sections. A single operator blinded to treatment status performed all measurements. Summing the amyloid volumes of the sections and dividing by the total number of sections was done to calculate the amyloid volume.
For quantitative analysis, an enzyme-linked immunosorbent assay (ELISA) was used to measure the levels of human total Aβ, Aβtotal and Aβ1-42 in the brains of APP transgenic mice (Biosource International, Camarillo, Calif.). Aβtotal and Aβ1-42 were extracted from mouse brains by guanidine hydrochloride and quantified as described by the manufacturer. […]

Fc receptor = Fc receptor activation: TNF-α secretion from THP-1 cells; format: cell-based; conditions: well precoated with 10 ug/well heat aggregated protein, 24 hours, FIG. 12
From the text: Fc stimulation results in TNF-α secretion.

[2] = Pharmacokinetic profile of TTP-4000 after IV injection (plasma ELISA); format: in vivo; conditions: monkeys, single IV bolus 5 mg/kg, after ligands saturated, FIG. 11
Protocol: Blood samples (approximately 1.0 mL) were collected at pre-dose (i.e., prior to injection of the TTP4000), or at 0.083, 0.25, 0.5, 2, 4, 8, 12, 24, 48, 72, 96, 120, 168, 240, 288, and 336 hours post dose into tubes containing (lithium heparin). Following collection, the tubes were placed on wet ice (maximum 30 minutes) until centrifugation under refrigeration (at 2 to 8° C.) at 1500×g for 15 minutes. Each harvested plasma sample was then stored frozen (−70° C.±10° C.) until assayed for RAGE polypeptide using an ELISA at various time-points following the injection, as described in Example 6.
Initially, 50 uL of the RAGE specific monoclonal antibody 1HB1011 at a concentration of 10 ug/mL in 1×PBS pH 7.3 is coated on plates via overnight incubation. When ready for use, plates are washed three times with 300 uL of 1× Imidazole-Tween wash buffer and blocked with 1% BSA. […] The samples are allowed to incubate at room temperature for one hour. After incubation, the plates are plates are washed three times. A Goat Anti-human IgG11 (Sigma A3312) […] conjugate in 1×PBS with 1% BSA is added and allowed to incubate at room temperature for 1 hour. The plates are washed three times. Color was elucidated with paranitrophenylphosphate.

[3] = tested on: S100b/RAGE-induced production of TNF-α in THP-1 cells; experiment: Inhibition of S100b/RAGE-induced production of TNF-α in THP-1 cells; format: cell-based; conditions: 10 μg protein, FIG. 10
From the text: Use of the RAGE fusion proteins of the present invention to modulate expression of the cellular effector TNF-α is shown in FIG. 10. THP-1 myeloid cells may be cultured in RPMI-1640 media supplemented with 10% FBS and induced to secrete TNF-α via stimulation of RAGE with S100b. When such stimulation occurs in the presence of a RAGE fusion protein, induction of TNF-α by S100b binding to RAGE may be inhibited.
Previous work has shown that the myeloid THP-1 cells may secrete TNF-α in response to RAGE ligands. In this assay, THP-1 cells were cultured in RPMI-1640 media supplemented with 10% FBS using a protocol provided by ATCC. […] The amount of TNF-α secreted by the THP-1 cells was measured 24 hours after the addition of the proteins to the cell culture using a commercially available ELISA kit for TNF-α (R&D Systems, Minneapolis, Minn.).

B1: TTP-4000: four domain RAGE fusion protein: human RAGE V and C1 domains with interdomain linkers (to residue 251) fused to human IgG1 CH2 and CH3; SEQ ID NO: 34/56 (protein, listed as Homo sapiens)
chain: QNITARIGEPLVLKCKGAPKKPPQRLEWKLNTGRTEAWKVLSPQGGGPWDSVARVLPNGSLFLPAVGIQDEGIFRCQAMNRNGKETKSNYRVRVYQIPGKPEIVDSASELTAGVPNKVGTCVSEGSYPAGTLSWHLDGKPLVPNEKGVSVKEQTRRHPETGLFTLQSELMVTPARGGDPRPTFSCSFSPGLPRHRALRTAPIQPRVWEPVPLEEVQLVVEPEGGAVAPPSVFLFPPKPKDTLMISRTPEVTCVVVDVSHEDPEVKFNWYVDGVEVHNAKTKPREEQYNSTYRVVSVLTVLHQDWLNGKEYKCKVSNKALPAPIEKTISKAKGQPREPQVYTLPPSRDELTKNQVSLTCLVKGFYPSDIAVEWESNGQPENNYKTTPPVLDSDGSFFLYSKLTVDKSRWQQGNVFSCSVMHEALHNHYTQKSLSLSPGK
In the case of B1, the “inflammatory cytokines IL-1 and TNF-α” value ([1]; data not shown) is reported as “can reduce”, the “Aβ plaques in the brain” value ([1]; treated for 3 months, vs vehicle and human IgG1, FIG. 14A) is reported as “fewer Aβ plaques” and the “cognitive dysfunction (Morris water maze)” value ([1]; treated for 3 months, vs vehicle and human IgG1, FIG. 14B) is reported as “less cognitive dysfunction”. The TNF generated (Fc receptor) was “less than 2 ng/well”, the terminal half-life [2] was “greater than 300 hours” and the “blocking S100b induction of TNF-α compared with sRAGE” value [3] was “at least as effective”. For the same molecule, the “reduction of S100b induction of TNF-α” value ([3]; S100b 0.1 mg/ml FAC, 24 hours) was about 70%.
